“Also recorded” adds a separate entry of the source. Blank lines part the entries; values can stand above or below the molecule they belong to.
Columns and labels:
[1] = tested on: granulocytes; test: Granulocyte reactivity, whole-blood indirect fluorescent flow cytometric analysis; format: binding
Method: Hybridoma supernatants were screened for CEA reactive antibody by the ROCHE® ^125I-CEA radioimmunoassay (RIA) in 0.01 and 0.10 M NH4 acetate buffer. Positive clones were recloned. The granulocyte reactivity of CEA-reactive MAb was determined by whole-blood indirect fluorescent flow cytometric analysis (Sharkey et al. Cancer Res., 1990, 50:2823-31). Two MAb with properties similar to those of NP-2 and NP-3, designated MN-2 and MN-6, were selected for additional development.
Immunoreactivity with blood lymphocytes was determined by live-cell indirect immunofluorescence, with the use of the whole blood staining method developed for use with the ORTHO SPECTRUM® I11 flow cytometer (Ortho Diagnostic Systems, Inc., Raritan, N.J.). Tissue reactivity of the MAb was determined by immunohistologic examination performed on frozen sections and 5-μm sections cut from tissue embedded in Paraplast-II. Indirect immunofluorescence on frozen sections was performed as previously described, with MAb concentrations of 20 μg/ml (Pawlak-Byczkowska et al., Cancer Res 1989, 49:4568-77).

[2] = tested on: Moser binding to fibronectin; test: Adhesion to extracellular matrix proteins assay, Moser; format: cell-based, human
Method: (§1) Adhesion to extracellular matrix proteins assay—The assay was done using the CYTOMATRIX™ screening kit from CHEMICON® (Kit #ECM205, Temecula, Calif.). The kit contains 96-well plates with strips coated with fibronectin, vitronectin, laminin, collagen-I, or collagen-IV. Subconfluent cell cultures were used for these studies. Cells (1×10^6 cells/mol) were seeded onto coated substrate and incubated at 37° C. for 1 hour in a CO2 incubator in PBS containing Ca^2+/Mg^2+ (200 μL per well). Adherent cells were fixed and stained. The plate was washed to remove unadhered cells and stained with 100 μL per well of MTS (Cell Titer Aq 96, PROMEGA®, Madison, Wis.) for 5 minutes at room temperature. Excess stain was removed with three PBS washes. Solubilization buffer [100 μL of a 50:50 mixture of 0.1 mol/L NaH2PO4 (pH 4.5) and 50% ethanol] was added to each well. Relative attachment was determined using absorbance readings (A540 nm-A570 nm).

[3] = tested on: BXPC3 binding to fibronectin; test: Adhesion to extracellular matrix proteins assay, BXPC3; format: cell-based, human
Method: as §1

[4] = tested on: LS174T cells; test: Collagen-based invasion assay, LS174T; format: cell-based, human; conditions: 10% FBS chemoattractant, 72-hour incubation
Method: (§2) Collagen-based invasion assay—The assay was done using CHEMICON® Kit (#ECM551, MILLIPORE®, Billerica, Mass.). Tumor cells at 80% confluence and were serum-starved for 18 to 24 hours before the assay was used. Cells were harvested with 5 mol of 2 mmol/L EDTA/PBS per 100-mm dish and incubated at 37° C. for 5 to 15 minutes. Cells were collected into 10 to 20 mol of quenching medium (serum-free DMEM containing 5% BSA) to inactivate trypsin/EDTA from the harvesting buffer. Cells were pelleted, resuspended in quenching medium (1×10^6 cells/mol), and appropriate antibody Fabs were added to individual cell aliquots. Cell invasion potential was determined as follows. Baseline invasion and invasion in the presence of a chemoattractant (10% FBS) were measured after a 72-hour incubation period at 37° C. in a 5% CO2 incubator. The bottom side of the collagen-coated polycarbonate membrane insert of the invasion chamber was placed in 400 μL of cell stain for 20 minutes at room temperature and washed. The dye was extracted and transferred into a 96-well microtiter plate for colorimetric measurements (A560 nm).

[5] = tested on: MCF-7 cells; test: Collagen-based invasion assay, MCF-7; format: cell-based, human; conditions: 10% FBS chemoattractant, 72-hour incubation
Method: as §2

[6] = tested on: MCF-7 cells adhesion to HUVEC; test: Endothelial cell adhesion assay, MCF-7; format: cell-based, human
Method: Endothelial cell adhesion assay—Human umbilical vein endothelial cells (HUVEC; Cambrex, San Diego, Calif.) were grown in collagen-coated dishes in EGM Media in a humidified atmosphere with 5% CO2 at 37° C. At passages 2 to 5, cells were plated at a density of 4×10^4 cells per well in 96-well plates 24 hours before the assay. Interleukin-1β (IL-1β, 1 ng/mol) was added 4 hours before the assay. At the start of the study, the medium with the IL-1β was removed and fresh DMEM with 1% bovine serum albumin (BSA) added and incubated for 30 minutes. Fresh medium without antibodies or with 10 μg/mol of MN-15 Fab′, MN-3 Fab′, or Ag8 Fab′ was added. Tumor cells (1×10^6 cells/mol) prelabeled overnight with ^3H-thymidine (100 μL per well using 1.0 μCi/mL) were added to HUVEC cultures and incubated for 30 minutes at 37° C. with rotation in medium with 20% FBS. Samples were washed thrice with PBS to remove unattached cells. Attached cells were solubilized with 0.1 N NaOH and radioactivity was measured in a β scintillation counter. The cpm attached/total cpm added (attaching potential) was determined.

effect on binding to fibronectin [2]: not affecting the binding
effect on binding to fibronectin [3]: not affecting the binding
B1: MN-15: murine Class I anti-CEA MAb, IgG1 kappa, binds A1B1 domain of CEACAM5 and CEACAM6 (antibody, V domains shown)
VL: DIQLTQSPAIMSASPGEKVTMTCSASSRVSYIHWYQQKSGTSPKRWIYGTSTLASGVPARFSGSGSGTSYSLTISSMEAEDAATYYCQQWSYNPPTFGAGTKLELKR
VH: EVRLVESGGGLVQGPGSLRLSCAASGFALTDYYMSWVRQSPGKTLEWLGFIANKANGHTTDYSPSVKGRFTISRDNSQTILYLQMNTLRTEDSATYYCARDMGIRWNFDVWGQGTTVTVSS
granulocyte reactivity [1]: granulocyte-reactive; also recorded: high granulocyte reactivity; also recorded: reacted strongly with granulocytes

B2: MN-15 Fab′: monovalent Fab′ fragment of murine MN-15 (antibody, V domains shown)
VL: B1 VL
VH: B1 VH
reduction in cell invasion [4]: 30%
reduction in cell invasion [5]: 77%
decrease in adhesion [6]: 41%

From patent US9371393B2, “Class I anti-CEA antibodies and uses thereof” (Immunomedics, Inc., priority 2009, dated 2016)
